Residue numbers refer to the chain shown, from its start.
B1: Clone 141 (designed binder)
chain: MIPGGLSEAKPATPEIQEIVDKVKPQLEEKTGETYGKLEAVQYKTQVVDLHTLKSGVGTNYYIKVRAGDNKYMHLKVFKSLYIKHHLWWIEDLVLTGYQVDKNKDDELTGF
notes: His-tagged
B2: Clone 138 (designed binder)
chain: MIPGGLSEAKPATPEIQEIVDKVKPQLEEKTGETYGKLEAVQYKTQVVDNVRHGWLSGTNYYIKVRAGDNKYMHLKVFKSLFALLWSAYGEDLVLTGYQVDKNKDDELTGF
notes: His-tagged
B3: Clone 145 (designed binder)
chain: MIPGGLSEAKPATPEIQEIVDKVKPQLEEKTGETYGKLEAVQYKTQVVYKNVGPWVNGTNYYIKVRAGDNKYMHLKVFKSLYRTNRGHEREDLVLTGYQVDKNKDDELTGF
notes: His-tagged
B4: Clone 137 (designed binder)
chain: MIPGGLSEAKPATPEIQEIVDKVKPQLEEKTGETYGKLEAVQYKTQVVLWPLQPKNWGTNYYIKVRAGDNKYMHLKVFKSLGWNYLEAIAEDLVLTGYQVDKNKDDELTGF
notes: His-tagged
B5: Clone 142 (designed binder)
chain: MIPGGLSEAKPATPEIQEIVDKVKPQLEEKTGETYGKLEAVQYKTQVVSWYKLWSYSGTNYYIKVRAGDNKYMHLKVFKSLFEGRHKDPEEDLVLTGYQVDKNKDDELTGF
notes: His-tagged
B6: Clone 136 (designed binder)
chain: MIPGGLSEAKPATPEIQEIVDKVKPQLEEKTGETYGKLEAVQYKTQVVVLRWQWGYLGTNYYIKVRAGDNKYMHLKVFKSLQLLYEDNDEDLVLTGYQVDKNKDDELTGF
notes: His-tagged
B7: Clone 140 (designed binder)
chain: MIPGGLSEAKPATPEIQEIVDKVKPQLEEKTGETYGKLEAVQYKTQVVRQVGVWAYEGTNYYIKVRAGDNKYMHLKVFKSLGRTVEGGRWEDLVLTGYQVDKNKDDELTGF
notes: His-tagged
B8: Clone 174 (designed binder)
chain: B7 chain with G52T, V53I, A55H, Y56F, V85E, E86V, G87E, R89S, W90F
notes: His-tagged
B9: Clone 14 (designed binder)
chain: MIPGGLSEAKPATPEIQEIVDKVKPQLEEKTGETYGKLEAVQYKTQVVSFLVDPLHLGTNYYIKVRAGDNKYMHLKVFKSLRSFGGEWGWEDLVLTGYQVDKNKDDELTGF
notes: His-tagged
B10: Clone 176 (designed binder)
chain: MIPGGLSEAKPATPEIQEIVDKVKPQLEEKTGETYGKLEAVQYKTQVVFWYPEIGWLGTNYYIKVRAGDNKYMHLKVFKSLRSRYPNYTAEDLVLTGYQVDKNKDDELTGF
notes: His-tagged
B11: Clone 144 (designed binder)
chain: MIPGGLSEAKPATPEIQEIVDKVKPQLEEKTGETYGKLEAVQYKTQVVAYQSPPYHFGTNYYIKVRAGDNKYMHLKVFKSLRQIAGYIAIEDLVLTGYQVDKNKDDELTGF
notes: His-tagged
B12: Clone 135 (designed binder)
chain: MIPGGLSEAKPATPEIQEIVDKVKPQLEEKTGETYGKLEAVQYKTQVVAVYPTFKYGTNYYIKVRAGDNKYMHLKVFKSLKVEYLDFITEDLVLTGYQVDKNKDDELTGF
notes: His-tagged
B13: Clone 143 (designed binder)
chain: MIPGGLSEAKPATPEIQEIVDKVKPQLEEKTGETYGKLEAVQYKTQVVDWPSHAKFWGTNYYIKVRAGDNKYMHLKVFKSLFLPDKDDPFEDLVLTGYQVDKNKDDELTGF
notes: His-tagged
B14: Clone 139 (designed binder)
chain: MIPGGLSEAKPATPEIQEIVDKVKPQLEEKTGETYGKLEAVQYKTQVVGLIQPPYAQGTNYYIKVRAGDNKYMHLKVFKSLGWQYIDLFHEDLVLTGYQVDKNKDDELTGF
notes: His-tagged

Biological target: T1, human PD-L1-Fc (R&D Systems) (human, UniProt Q9NZQ7 19-239)
T1 construct: Bought from R&D Systems; Biotinylated in-house for the phage selection; also called huPD-L1-Fc; human PD-L1-Fc antigen; not shown: Fc part of the bought fusion
Assay: soluble Affimer ELISA

T1 sequence (Q9NZQ7 19-239 limits assumed): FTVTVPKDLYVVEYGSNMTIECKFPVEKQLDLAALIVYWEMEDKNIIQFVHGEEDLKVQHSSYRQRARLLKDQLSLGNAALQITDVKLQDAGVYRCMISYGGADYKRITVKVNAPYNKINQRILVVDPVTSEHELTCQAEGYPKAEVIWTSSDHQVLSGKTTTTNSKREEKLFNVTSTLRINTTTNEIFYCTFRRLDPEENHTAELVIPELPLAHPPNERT

Binding result, binds:
B1
B2
B3
B4
B5
B6
B7
B8
B9
B10
B11
B12
B13
B14
